Measured values reported in paper PMC3504746.

Molecular target: skeletal muscle ryanodine receptor (RyR1) purified from sheep skeletal muscle, homotetramer (sheep (endogenous in skeletal muscle))
Test: negative-stain TEM

## skeletal muscle ryanodine receptor (RyR1) purified from sheep skeletal muscle, homotetramer
  stoichiometry N: 4
